Assay [1] addresses T1, PD-L1 on PD-L1 overexpressing cells (human, UniProt Q9NZQ7 19-290).
T1 construct: whole, on cells; also called PD-L1过表达细胞; PD-L1稳定过表达CHO细胞株
As to the kind of experiment: phage cell-binding ELISA on PD-L1 overexpressing cells, anti-M13-HRP. Background: ELISA stands for enzyme-linked immunosorbent assay.

Assay [2] concerns the target T2, recombinant PD-L1-His protein (human, UniProt Q9NZQ7 19-238).
T2 construct: also called 重组PD-L1-HIS蛋白; PD-L1蛋白; not shown: His tag
The assay is described as follows: hybridoma supernatant screen, ELISA on coated PD-L1-His.

Assay [3] has as its target T1, PD-L1 on PD-L1 overexpressing cells. The assay is described as follows: cell binding, PD-L1 overexpressing cells, anti-human-IgG-Eu fluorescence.
The target in assay [4] is T3, recombinant PD-L1-Fc protein (human, UniProt Q9NZQ7 19-238, limits assumed).
T3 construct: also called 重组PD-L1-Fc蛋白; PD-L1重组蛋白; not shown: Fc part
T3 sequence (Q9NZQ7 19-238 limits assumed): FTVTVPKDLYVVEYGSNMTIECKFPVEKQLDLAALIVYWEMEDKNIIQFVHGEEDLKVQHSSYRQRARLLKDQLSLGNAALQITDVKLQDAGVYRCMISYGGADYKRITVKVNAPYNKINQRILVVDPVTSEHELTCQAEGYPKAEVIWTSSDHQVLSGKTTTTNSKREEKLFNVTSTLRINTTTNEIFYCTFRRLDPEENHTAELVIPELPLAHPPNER
The assay is described as follows: competition ELISA, coated PD-L1-Fc, competitor biotinylated PD1 0.5ug/ml.

The target in assay [5] is T1, PD-L1 on PD-L1 overexpressing cells. The assay is described as follows: inhibition of biotinylated PD1 binding to PD-L1 overexpressing cells, Eu-streptavidin.
Assay [6] shares this target. As to the kind of experiment: cell-based or functional assay.
In assay [7] the target is T2, recombinant PD-L1-His protein. As to the kind of experiment: ELISA, coated PD-L1-HIS, donkey anti-human IgG-HRP.
The target of a further assay is T4, recombinant human PDL2 (human, UniProt Q9BQ51 20-220, limits assumed).
T4 construct: also called 人PDL2
T4 sequence (looked up): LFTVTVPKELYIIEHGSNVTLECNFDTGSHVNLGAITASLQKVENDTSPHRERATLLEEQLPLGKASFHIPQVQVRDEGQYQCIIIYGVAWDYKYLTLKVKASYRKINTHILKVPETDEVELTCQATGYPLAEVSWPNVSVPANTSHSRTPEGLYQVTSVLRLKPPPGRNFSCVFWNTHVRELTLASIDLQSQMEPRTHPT
The assay is described as follows: ELISA, coated recombinant protein, anti-human IgG-HRP.

In another assay the target is T5, recombinant human B7-1 (human, UniProt P33681 35-242, limits assumed).
T5 construct: also called 人B7-1
T5 sequence (looked up): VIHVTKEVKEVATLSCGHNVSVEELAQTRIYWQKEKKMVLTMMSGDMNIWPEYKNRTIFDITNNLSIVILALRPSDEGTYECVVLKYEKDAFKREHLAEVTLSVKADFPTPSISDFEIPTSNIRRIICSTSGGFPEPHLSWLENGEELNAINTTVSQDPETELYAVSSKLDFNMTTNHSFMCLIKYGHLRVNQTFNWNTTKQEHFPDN
The description is as above.

Another assay addresses T6, recombinant human B7-2 (human, UniProt P42081 24-247, limits assumed).
T6 construct: also called 人B7-2
T6 sequence (looked up): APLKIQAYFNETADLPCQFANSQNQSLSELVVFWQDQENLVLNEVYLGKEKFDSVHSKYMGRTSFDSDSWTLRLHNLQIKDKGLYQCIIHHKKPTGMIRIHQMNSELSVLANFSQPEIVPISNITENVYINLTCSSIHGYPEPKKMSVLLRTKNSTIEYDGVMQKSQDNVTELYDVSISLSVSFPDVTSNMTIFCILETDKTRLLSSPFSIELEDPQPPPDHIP
The assay is described as above.

The target in assay [8] is T2, recombinant PD-L1-His protein. As to the kind of experiment: SPR, BIAcore T200, antibody captured by goat anti-human IgG on CM5 chip, 300nM PD-L1-HIS as analyte. (In general: In SPR one partner is held on a chip, and binding of the other changes the refractive index at the surface.)

T2 sequence (Q9NZQ7 19-238 limits assumed): as the sequence (Q9NZQ7 19-238 limits assumed) above
T1 sequence (Q9NZQ7 19-290): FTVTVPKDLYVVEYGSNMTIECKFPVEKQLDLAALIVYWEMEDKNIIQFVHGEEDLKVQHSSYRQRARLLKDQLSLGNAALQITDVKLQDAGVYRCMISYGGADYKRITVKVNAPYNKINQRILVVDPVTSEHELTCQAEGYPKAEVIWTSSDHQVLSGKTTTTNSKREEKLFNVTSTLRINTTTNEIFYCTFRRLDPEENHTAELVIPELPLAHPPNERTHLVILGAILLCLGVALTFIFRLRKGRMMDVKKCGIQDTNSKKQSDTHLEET

B1: HUL01 scFv displayed on phage (scFv)
scFv: EVQLQESGPGLVKPSQTLSLTCTVSGDSFSSGYWNWIRQHPGKGLEYIGYVSYTGSTYYIPSLKSRVTISRDTSKNQFSLKLSSVTAADTAVYYCAGYRDWLHGYFDYWGQGTTVTVSSGGGGSGGGGSGGGGSDIQMTQSPSSLSASVGDRVTITCKASQNVGTNVAWYQQKPGKAPKRLIYSASYRFSGVPSRFSGSGSGTEFTLTISSLQPEDFATYYCQQYNGYPLTFGQGTKLEIK
notes: also called clone1; clone2
Consider B1, for which the binding result in assay [1] is given as “binds”.

B2: HUL02 scFv displayed on phage (scFv)
scFv: EVQLQESGPGLVKPSQTLSLTCTVSGDSFSSGYWNWIRQHPGKGLEYIGYVSYTGSTYYIPSLKSRVTISRDTSKNQFSLKLSSVTAADTAVYYCAGYRDWLHGYFDYWGQGTTVTVSSGGGGSGGGGSGGGGSDIQMTQSPSSLSASVGDRVTITCKASQNVMDNVAWYQQKPGKAPKRLIYSASYRFSGVPSRFSGSGSGTEFTLTISSLQPEDFATYYCQQYNGYPLTFGQGTKLEIK
notes: Phage clone from the library built on the HUL01 scFv template; also called clone4
As to B2, in assay [1], the binding result is given as “binds”.

B3: murine monoclonal antibody specifically binding PD-L1 (hybridoma clone of Example 1) (antibody, V domains shown)
VH: EVQLQESGPSLVQPSQTLSLTCSVTGDSFTSGYWNWIRKFPDNKLQYMGYVSYTGSTYYIPSLKSRISITRDTSKNQYFLQLNSVTSEDTATYFCAGYRDWLHGYFDYWGQGTTLTVSS
VL: DIVMTQSQKFMSTSIGDRVSVTCKASQNVGTNVAWYQLKPGQSPKALIYSASYRFSGVPDRFTGSGSGTEFTLTITNVQSEDLTDYFCQQYNGYPLTFGAGTKLEVK
notes: Mouse IgG from hybridoma supernatant; also called 鼠源特异性结合PD-L1单克隆抗体; 鼠源抗体
B3: in assay [2], the binding result is “binds”.

B4: HUL01 (antibody, human IgG1, kappa, N297A, V domains shown)
VH: EVQLQESGPGLVKPSQTLSLTCTVSGDSFSSGYWNWIRQHPGKGLEYIGYVSYTGSTYYIPSLKSRVTISRDTSKNQFSLKLSSVTAADTAVYYCAGYRDWLHGYFDYWGQGTTVTVSS
VL: DIQMTQSPSSLSASVGDRVTITCKASQNVGTNVAWYQQKPGKAPKRLIYSASYRFSGVPSRFSGSGSGTEFTLTISSLQPEDFATYYCQQYNGYPLTFGQGTKLEIKR
notes: expressed in 293C18 cells, Protein A purified; also called clone1; clone2
For orientation: EC50 means the concentration at which the effect is half-maximal. By IC50 is commonly meant the midpoint of a concentration-inhibition curve. As for B4, a half-maximal response in assay [3] (EC50) required 0.13 µg/mL. Moreover, the IC50 was 0.117 µg/mL in [4] and 0.228 µg/mL in assay [5].

B5: HUL02 (antibody, human IgG1, kappa, N297A, V domains shown)
VH: EVQLQESGPGLVKPSQTLSLTCTVSGDSFSSGYWNWIRQHPGKGLEYIGYVSYTGSTYYIPSLKSRVTISRDTSKNQFSLKLSSVTAADTAVYYCAGYRDWLHGYFDYWGQGTTVTVSS
VL: DIQMTQSPSSLSASVGDRVTITCKASQNVMDNVAWYQQKPGKAPKRLIYSASYRFSGVPSRFSGSGSGTEFTLTISSLQPEDFATYYCQQYNGYPLTFGQGTKLEIKR
notes: also called clone4; PD-L1抗体HUL02
One may read the Kd as the constant that tells how readily two partners part at equilibrium. For the molecule B5, the “刺激T淋巴细胞IL-2分泌的EC50 (MLR, CD4+ T cells and DC)” value in assay [6] came out at 0.062 µg/mL. Besides, the EC50 in assay [7] came out at 0.0206 µg/mL; in [3] it was 0.0695 µg/mL. Besides, the binding result in the assay with recombinant human PDL2, in the assay with recombinant human B7-1 and in the assay with recombinant human B7-2 was “no binding (tested: 1ug/ml)” each time. Also, the IC50 in [4] was 0.0716 µg/mL; in [5], 0.115 µg/mL. In addition, the dissociation constant Kd in assay [8] turned out to be 0.17 nM.

Source of the values: patent publication CN109021107A (JIANGSU RUONAIBO BIOLOGY MEDICAL TECH CO LTD, dated 2018).
